Patent US20100216715A1 (Novo Nordisk, published 2010)
Positions count from the first letter of the chain named. Names and notes keep the numbering of the source. Values belong to the molecule of their own block, whether it stands above or below them.

Target: T1, human beta-Klotho (human, UniProt Q86Z14 1-1044)
T1 sequence (looked up): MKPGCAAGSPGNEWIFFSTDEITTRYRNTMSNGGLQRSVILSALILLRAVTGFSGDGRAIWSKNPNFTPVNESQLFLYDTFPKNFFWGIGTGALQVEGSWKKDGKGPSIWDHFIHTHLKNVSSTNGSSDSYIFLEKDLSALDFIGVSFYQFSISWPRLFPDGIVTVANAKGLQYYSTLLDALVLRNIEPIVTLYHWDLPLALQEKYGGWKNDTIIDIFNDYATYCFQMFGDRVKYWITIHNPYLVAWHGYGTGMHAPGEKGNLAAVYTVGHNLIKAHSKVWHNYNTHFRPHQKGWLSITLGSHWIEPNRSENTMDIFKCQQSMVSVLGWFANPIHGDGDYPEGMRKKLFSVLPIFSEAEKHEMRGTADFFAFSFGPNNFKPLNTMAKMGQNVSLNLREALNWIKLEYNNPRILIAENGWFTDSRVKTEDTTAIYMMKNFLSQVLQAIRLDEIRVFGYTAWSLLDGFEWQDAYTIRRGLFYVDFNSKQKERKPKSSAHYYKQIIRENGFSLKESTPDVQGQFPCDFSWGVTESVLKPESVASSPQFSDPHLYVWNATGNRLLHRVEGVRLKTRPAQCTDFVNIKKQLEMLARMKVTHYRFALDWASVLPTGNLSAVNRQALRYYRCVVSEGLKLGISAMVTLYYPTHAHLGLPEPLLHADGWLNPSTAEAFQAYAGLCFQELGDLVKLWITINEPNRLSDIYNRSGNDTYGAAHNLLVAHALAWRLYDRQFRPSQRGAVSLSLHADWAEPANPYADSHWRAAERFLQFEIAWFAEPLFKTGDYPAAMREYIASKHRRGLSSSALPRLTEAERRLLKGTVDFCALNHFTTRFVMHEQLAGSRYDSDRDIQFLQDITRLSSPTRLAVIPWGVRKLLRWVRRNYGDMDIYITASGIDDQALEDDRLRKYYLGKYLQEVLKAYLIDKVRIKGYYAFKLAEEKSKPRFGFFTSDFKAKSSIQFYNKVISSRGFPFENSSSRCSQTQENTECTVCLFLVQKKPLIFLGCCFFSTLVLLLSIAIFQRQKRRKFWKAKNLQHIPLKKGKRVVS
Experiment: cell-based or functional assay

- pERK-HEK293-Beta-klotho without HSA [EC50 (nM)] Median Value: 9.5 nM
Molecule: (P143V, A145E, L146E, 148aD, P149L, P150R, I152H, 153aE, 153bS, 153cD, 153dM, A154F, P155S, Q156S, P158L, D159E, V160T, G161D, S163M, L166F, S167G, M168L, 169aT, P171L, S172E, Q173A, G174V, Y179F, A180E, S181K) Met-FGF21 (ligand)

- pERK-HEK293-Beta-klotho without HSA [EC50 (nM)] Median Value: 3.3 nM
B1: (K56R, K59R, K69R, K122R, L166F, S167G, M168L, 169aT, P171L, S172E, Q173A, G174V, Y179F, A180E, S181R) Gly-FGF21 (ligand)
chain: GHPIPDSSPLLQFGGQVRQRYLYTDDAQQTEAHLEIREDGTVGGAADQSPESLLQLRALRPGVIQILGVRTSRFLCQRPDGALYGSLHFDPEACSFRELLLEDGYNVYQSEAHGLPLHLPGNRSPHRDPAPRGPARFLPLPGLPPALPEPPGILAPQPPDVGSSDPFGLVTGLEAVRSPSFER

- pERK-HEK293-Beta-klotho without HSA [EC50 (nM)] Median Value: 1.8 nM
B2: (S71C, D102E, N121Q, L166F, S167G, M168L, 169aT, P171L, S172E, Q173A, G174V, Y179F, A180E, S181K) Gly-FGF21 (ligand)
chain: B1 chain with R57K, R60K, R70K, S72C, D103E, N122Q, R123K, R183K

- pERK-HEK293-Beta-klotho without HSA [EC50 (nM)] Median Value: 1.1 nM
B3: (S71C, N121Q, L166F, S167G, M168L, 169aT, P171L, S172E, Q173A, G174V, Y179F, A180E, S181K) Gly-FGF21 (ligand)
chain: B1 chain with R57K, R60K, R70K, S72C, N122Q, R123K, R183K

- pERK-HEK293-Beta-klotho without HSA [EC50 (nM)] Median Value: 1.4 nM
B8: (S71C, L166F, S167G, M168L, 169aT, P171L, S172E, Q173A, G174V, Y179F, A180E, S181K) Gly-FGF21 (ligand)
chain: B1 chain with R57K, R60K, R70K, S72C, R123K, R183K

- pERK-HEK293-Beta-klotho without HSA [EC50 (nM)] Median Value: 29 nM
B13: (Q28R, K56R, K59R, K69R, D102T, N121Q, K122R, M168L, Y179F, A180E, S181R) Gly-FGF21 (ligand)
chain: GHPIPDSSPLLQFGGQVRQRYLYTDDAQRTEAHLEIREDGTVGGAADQSPESLLQLRALRPGVIQILGVRTSRFLCQRPDGALYGSLHFDPEACSFRELLLETGYNVYQSEAHGLPLHLPGQRSPHRDPAPRGPARFLPLPGLPPALPEPPGILAPQPPDVGSSDPLSLVGPSQGRSPSFER

- pERK-HEK293-Beta-klotho without HSA [EC50 (nM)] Median Value: 36 nM
B14: (Q27E, K56R, K59R, K69R, D102T, N121Q, K122R, Y179F, A180E, S181R) Gly-FGF21 (ligand)
chain: B13 chain with Q28E, R29Q, L169M

Continued, molecule first:

B4: (-1G, 71C, 166F, 167G, 168L, 169aT, 171L, 172E, 173A, 174V, 179F, 180E, 181K) FGF21 derivative of Example 15 (ligand)
chain: B1 chain with R57K, R60K, R70K, S72C, R123K, R183K
modifications: S-71-({2-[2-(2-{2-[2-(2-{2-[(S)-4-carboxy-4-(17-carboxy-heptadecanoylamino)-butyrylamino]-ethoxy}-ethoxy)-acetylamino]-ethoxy}-ethoxy)-acetyl-amino]-ethylcarbamoyl}-methyl) on the thiol of Cys71
- pERK-HEK293-Beta-klotho without HSA [EC50 (nM)] Median Value: 1.6 nM

B5: (166F, 167G, 168L, 169aT, 171L, 172E, 173A, 174V, 179F, 180E, 181K) (Compound Z) (ligand)
chain: B1 chain with G1M, R57K, R60K, R70K, R123K, R183K
- pERK-HEK293-Beta-klotho without HSA [EC50 (nM)] Median Value: 1 nM

B6: (K56R, 59R, 69R, 122R, 166F, 167G, 168L, 169aT, 171L, 172E, 173A, 174V, 179F, 180E, 181R) Gly-FGF21 derivative of Example 49 (ligand)
chain: B1 chain
modifications: N-alpha-1-[2-(2-{2-[2-(2-{2-[(S)-4-carboxy-4-(17-carboxy-heptadecanoylamino)-butyrylamino]-ethoxy}-ethoxy)-acetylamino]-ethoxy}-ethoxy)-acetyl] on the N-terminal alpha amino group
- pERK-HEK293-Beta-klotho without HSA [EC50 (nM)] Median Value: 1.2 nM

B7: (-1G, 71C, 121Q, 166F, 167G, 168L, 169aT, 171L, 172E, 173A, 174V, 179F, 180E, 181K) FGF21 derivative of Example 16 (ligand)
chain: B1 chain with R57K, R60K, R70K, S72C, N122Q, R123K, R183K
modifications: S-71-({2-[2-(2-{2-[2-(2-{2-[(S)-4-carboxy-4-(17-carboxy-heptadecanoylamino)-butyrylamino]-ethoxy}-ethoxy)-acetylamino]-ethoxy}-ethoxy)-acetylamino]-ethylcarbamoyl}-methyl) on the thiol of Cys71
- pERK-HEK293-Beta-klotho without HSA [EC50 (nM)] Median Value: 1.4 nM

B9: (145aP, 145bM, L146V, P149E, G151E, I152D, A154R, P155G, Q156H, P157L, P158E, D159S, V160D, G161M, S162F, D164S, S167E, M168T, V169D, G170S, P171M, S172D, … (ligand)
chain: MHPIPDSSPLLQFGGQVRQRYLYTDDAQQTEAHLEIREDGTVGGAADQSPESLLQLKALKPGVIQILGVKTSRFLCQRPDGALYGSLHFDPEACSFRELLLEDGYNVYQSEAHGLPLHLPGNKSPHRDPAPRGPARFLPLPGLPPAPMVPEEPEDLRGHLESDMFSSPLETDSMDPFGLVTGLEAVRSPSFEK
- pERK-HEK293-Beta-klotho without HSA [EC50 (nM)] Median Value: 17 nM

B10: (K56R, K59R, K69R, K122R) EEAEAGGAGGSGGS-FGF21 (ligand)
chain: EEAEAGGAGGSGGSHPIPDSSPLLQFGGQVRQRYLYTDDAQQTEAHLEIREDGTVGGAADQSPESLLQLRALRPGVIQILGVRTSRFLCQRPDGALYGSLHFDPEACSFRELLLEDGYNVYQSEAHGLPLHLPGNRSPHRDPAPRGPARFLPLPGLPPALPEPPGILAPQPPDVGSSDPLSMVGPSQGRSPSYAS
- pERK-HEK293-Beta-klotho without HSA [EC50 (nM)] Median Value: 2 nM

B11: (-14E, -13E, -12A, -11E, -10A, -9G, -8G, -7A, -6G, -5G, -4S, -3G, -2G, -1S, K56R, 59R, 69R, 122R) FGF21 derivative of Example 51 (ligand)
chain: B10 chain
modifications: N-alpha-1-[(S)-4-carboxy-4-(17-carboxy-heptadecanoylamino)-butyryl] on the N-terminal alpha amino group
- pERK-HEK293-Beta-klotho without HSA [EC50 (nM)] Median Value: 12 nM

B12: (A26E, K56R, K59R, K69R, D102T, N121Q, K122R, Y179F, A180E, S181R) Gly-FGF21 (ligand)
chain: B13 chain with A27E, R29Q, L169M
- pERK-HEK293-Beta-klotho without HSA [EC50 (nM)] Median Value: 44 nM
